# Data as given in US20260285931 (published 2026).
# T1: CD127-Fc (IL-7Ralpha Fc) (human, UniProt P16871)
# T1 chain: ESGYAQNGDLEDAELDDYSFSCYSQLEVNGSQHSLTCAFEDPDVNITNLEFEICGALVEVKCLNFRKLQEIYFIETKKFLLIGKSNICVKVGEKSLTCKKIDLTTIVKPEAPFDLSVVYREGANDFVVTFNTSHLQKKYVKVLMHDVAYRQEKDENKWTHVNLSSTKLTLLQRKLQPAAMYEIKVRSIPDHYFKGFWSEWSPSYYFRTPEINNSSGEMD
# Target: T1, CD127-Fc (IL-7Ralpha Fc)
# Assay: BLI
row,Binder,Kd
1,IL-7_s12 (designed binder) KKLNDLCFLKRLLQEIKTCWNKLHEKTPVSDRVTKQYESVLMVSIDQLLDSMKEIGSNCLNNEFNFFKRHICDANKECMFLFRAARKLRQFLKMQSTGDFDLHLLKVSEGTTILLQSTGCS,0.0259 µM
2,IL-7_s6 (designed binder) KKLNDLCFLKRLLQEIKTCWNKILSQRFPKAEFAEVKQYESVLMVSIDQLLDSMKEIGSNCLNNEFNFFKRHICDANKECMFLFRAARKLRQFLKMQSTGDFDLHLLKVSEGTTILLQSTGCS,0.0171 µM
3,IL-7_s2 (designed binder) KKLNDLCFLKRLLQEIKTCWNKICSAKQEPERNECFKQYESVLMVSIDQLLDSMKEIGSNCLNNEFNFFKRHICDANKECMFLFRAARKLRQFLKMQSTGDFDLHLLKVSEGTTILLQSTGCS,0.0106 µM
4,IL-7_s8 (designed binder) KKLNDLCFLKRLLQEIKTCWNKECSEKPLLEKSHCIKQYESVLMVSIDQLLDSMKEIGSNCLNNEFNFFKRHICDANKECMFLFRAARKLRQFLKMQSTGDFDLHLLKVSEGTTILLQSTGCS,0.0334 µM
5,IL-7_s11 (designed binder) KKLNDLCFLKRLLQEIKTCWNKKVGSKCSKHPEAKRMPCAEDYLKQYESVLMVSIDQLLDSMKEIGSNCLNNEFNFFKRHICDANKECMFLFRAARKLRQFLKMQSTGDFDLHLLKVSEGTTILLQSTGCS,0.0393 µM
6,IL-7_s4 (designed binder) KKLNDLCFLKRLLQEIKTCWNKIAFTECSQAADKAACLLPKLDEYESVLMVSIDQLLDSMKEIGSNCLNNEFNFFKRHICDANKECMFLFRAARKLRQFLKMQSTGDFDLHLLKVSEGTTILLQSTGCS,0.0336 µM
7,IL-7_s4a (designed binder) KKLNDLCFLKRLLQEIKTCWNKRYKAAFTECSQAADKAACLLPKLDELKQYESVLMVSIDQLLDSMKEIGSNCLNNEFNFFKRHICDANKECMFLFRAARKLRQFLKMQSTGDFDLHLLKVSEGTTILLQSTGCS,0.0145 µM
8,IL-7_s9 (designed binder) KKLNDLCFLKRLLQEIKTCWNKICSAAADPHECYKQYESVLMVSIDQLLDSMKEIGSNCLNNEFNFFKRHICDANKECMFLFRAARKLRQFLKMQSTGDFDLHLLKVSEGTTILLQSTGCS,0.0493 µM
9,IL-7_s10 (designed binder) KKLNDLCFLKRLLQEIKTCWNKYTKKVPQVSTPTLVQYESVLMVSIDQLLDSMKEIGSNCLNNEFNFFKRHICDANKECMFLFRAARKLRQFLKMQSTGDFDLHLLKVSEGTTILLQSTGCS,0.0353 µM
10,IL-7_s10a (designed binder) KKLNDLCFLKRLLQEIKTCWNKYTKKVPQVSTPTLKQYESVLMVSIDQLLDSMKEIGSNCLNNEFNFFKRHICDANKECMFLFRAARKLRQFLKMQSTGDFDLHLLKVSEGTTILLQSTGCS,0.0346 µM
11,IL-7 wt-degly (protein) DCDIEGKDGKQYESVLMVSIDQLLDSMKEIGSNCLNNEFNFFKRHICDANKEGMFLFRAARKLRQFLKMQSTGDFDLHLLKVSEGTTILLQCTGQVKGRKPAALGEAQPTKSLEEQKSLKEQKKLNDLCFLKRLLQEIKTCWNKILMGTKEH,0.0647 µM
12,IL-7_s1 (designed binder) KKLNDLCFLKRLLQEIKTCWNKIFAQYLQQSPFEDHKQYESVLMVSIDQLLDSMKEIGSNCLNNEFNFFKRHICDANKECMFLFRAARKLRQFLKMQSTGDFDLHLLKVSEGTTILLQSTGCS,0.00189 µM
13,IL-7_s13 (designed binder) KKLNDLCFLKRLLQEIKTCWNKILVEKCSKADDKETCFAEDGKQYESVLMVSIDQLLDSMKEIGSNCLNNEFNFFKRHICDANKECMFLFRAARKLRQFLKMQSTGDFDLHLLKVSEGTTILLQSTGCS,0.0319 µM
14,IL-7_s13a (designed binder) KKLNDLCFLKRLLQEIKTCWNKICSKADDKETCKQYESVLMVSIDQLLDSMKEIGSNCLNNEFNFFKRHICDANKECMFLFRAARKLRQFLKMQSTGDFDLHLLKVSEGTTILLQSTGCS,0.0036 µM
15,IL-7_s7 (designed binder) KKLNDLCFLKRLLQEIKTCWNKIVHTECSHGDLLECADDRKQYESVLMVSIDQLLDSMKEIGSNCLNNEFNFFKRHICDANKECMFLFRAARKLRQFLKMQSTGDFDLHLLKVSEGTTILLQSTGCS,0.0567 µM
16,IL-7_s5 (designed binder) KKLNDLCFLKRLLQEIKTCWNKILQKFGERAAKQYESVLMVSIDQLLDSMKEIGSNCLNNEFNFFKRHICDANKECMFLFRAARKLRQFLKMQSTGDFDLHLLKVSEGTTILLQSTGCS,0.00757 µM
